For one variant, response results are on record in article PMC11745445 (2024).

B1: LV-MKK3-His-WT (His-labeled wild-type MKK3) in HT-22 cells [not stated] / RAGE (receptor for advanced glycation end products), endogenous in HT-22 cells [mouse (endogenous in HT-22)] (parent complex)
chain 1: MESPAASPPASLPQTKGKSKRKKDLRISCVSKPPVSNPTPPRNLDSRTFITIGDRNFEVEADDLVTISELGRGAYGVVEKVRHAQSGTIMAVKRIRATVNTQEQKRLLMDLDINMRTVDCFYTVTFYGALFREGDVWICMELMDTSLDKFYRKVLEKNMKIPEDILGEIAVSIVRALEHLHSKLSVIHRDVKPSNVLINKEGHVKMCDFGISGYLVDSVAKTMDAGCKPYMAPERINPELNQKGYNVKSDVWSLGITMIEMAILRFPYESWGTPFQQLKQVVEEPSPQLPADQFSPEFVDFTSQCLRKNPAERMSYLELMEHPFFTLHKTKKTDIAAFVKEILGEDS
chain 2: GQNITARIGEPLVLSCKGAPKKPPQQLEWKLNTGRTEAWKVLSPQGGPWDSVARILPNGSLLLPATGIVDEGTFRCRATNRRGKEVKSNYRVRVYQIPGKPEIVDPASELTASVPNKVGTCVSEGSYPAGTLSWHLDGKLLIPDGKETLVKEETRRHPETGLFTLRSELTVIPTQGGTHPTFSCSFSLGLPRRRPLNTAPIQLRVREPGPPEGIQLLVEPEGGIVAPGGTVTLTCAISAQPPPQVHWIKDGAPLPLAPSPVLLLPEVGHEDEGTYSCVATHPSHGPQESPPVSIRVTETGDEGPAEGSVGESGLGTLALALGILGGLGVVALLVGAILWRKRQPRREERKAPESQEDEEERAELNQSEEAEMPENGAGGP

The first test covers variants of B1. The experiment in a line: co-IP (IP: RAGE, IB: MKK3-His) followed by western blotting, optical density; hippocampus of MKK3-knockdown db/db mice; n = 4 in each group; parent: 3.1; read off a plot.
As for chain 1 K329A, the response was ~1.4 fold change relative to the db/db + MKK3-shRNA group.

In a further test the parent is B1. Nature of the test: co-IP (IP: MKK3-His, IB: RAGE) followed by western blotting, optical density; hippocampus of MKK3-knockdown db/db mice; n = 4 in each group; parent: 1.7; read off a plot.
Turning to chain 1 K329A, the response was ~1.1 fold change relative to the db/db + MKK3-shRNA group.

Variants of B1 are the subject of a further test. Nature of the test: co-IP (IP: MKK3-His, IB: RAGE) followed by western blotting, optical density; MKK3-knockdown HT-22 cells, high-glucose stimulation 24 hours; n = 4 in each group; parent: 4; read off a plot.
Turning to chain 1 K329A, the response was ~1.4 fold change relative to the HG + MKK3-shRNA group.

The next test covers variants of B1. Nature of the test: co-IP (IP: RAGE, IB: MKK3-His) followed by western blotting, optical density; MKK3-knockdown HT-22 cells, high-glucose stimulation 24 hours; n = 4 in each group; parent: 3.4; read off a plot.
In the case of chain 1 K329A, the response is ~1.1 fold change relative to the HG + MKK3-shRNA group.
